Experimental data taken from PMC7294595.

Molecular target: flu-pTyr (gp130-derived phosphopeptide) (Homo sapiens)

B1: STAT3 127-711, P40763 (protein)
chain: GQANHPTAAVVTEKQQMLEQHLQDVRKRVQDLEQKMKVVENLQDDFDFNYKTLKSQGDMQDLNGNNQSVTRQKMQQLEQMLTALDQMRRSIVSELAGLLSAMEYVQKTLTDEELADWKRRQQIACIGGPPNICLDRLENWITSLAESQLQTRQQIKKLEELQQKVSYKGDPIVQHRPMLEERIVELFRNLMKSAFVVERQPCMPMHPDRPLVIKTGVQFTTKVRLLVKFPELNYQLKIKVCIDKDSGDVAALRGSRKFNILGTNTKVMNMEESNNGSLSAEFKHLTLREQRCGNGGRANCDASLIVTEELHLITFETEVYHQGLKIDLETHSLPVVVISNICQMPNAWASILWYNMLTNNPKNVNFFTKPPIGTWDQVAEVLSWQFSSTTKRGLSIEQLTTLAEKLLGPGVNYSGCQITWAKFCKENMAGKGFSFWVWLDNIIDLVKKYILALWNEGYIMGFISKERERAILSTKPPGTFLLRFSESSKEGGVTFTWVEKDISGKTQIQSVEPYTKQQLNNMSFAEIIMGYKIMDATNILVSPLVYLYPDIPKEEAFGKYCRPESQEHPEADPGSAAPYLKTKFI
**Q.** B1 was tested. Which Kd did it give?
**A.** The Kd was 60 nM.
